This note sets out measurements from patent US20230303711A1 (BIO THERA SOLUTIONS, published 2023).

Where a chain is given by its changes, count along the chain named. In names and notes the source's numbering stands.

Usually Kd stands for the constant that tells how readily two partners part at equilibrium. In general, IC50 refers to the concentration that inhibits the measured activity by half. A lower IC50 goes with higher potency. What is called EC50 is the concentration that produces a half-maximal response. Low values mean higher potency in that assay, high ones lower potency in that assay. What is called EC50 (read off the curve) is the concentration at which the effect is half-maximal. Lower therefore signals higher potency in that assay.

Test [1] addresses T1, His-tagged human CD47-ECD protein (CD47-His) (human, UniProt Q08722 19-139).
T1 construct: Expressed in HEK293F cells; also called CD47-His antigen
Kind of test: BLI (Fortebio), antibody on protein A sensor, CD47-His in solution. (In BLI a coated tip is dipped into the sample, and binding shifts an interference pattern.)

In test [2] the target is T1, His-tagged human CD47-ECD protein …. Kind of test: competitive ELISA on coated CD47-His (2 µg/mL); blocked ligand SIRPα-Fc-Bio (0.1 µg/mL), HRP-streptavidin, OD450; value is parameter C of the printed 4-parameter fit. In general terms: In an ELISA, binding on a coated surface is turned into a signal by an enzyme label.
Test [3] deals with T2, macaque CD47-Fc (macaque, UniProt A0A2K5X523 19-141).
T2 construct: Bought reagent; not shown: Fc part of the bought fusion and any linker to it
T2 sequence (A0A2K5X523 entry or part of it limits assumed): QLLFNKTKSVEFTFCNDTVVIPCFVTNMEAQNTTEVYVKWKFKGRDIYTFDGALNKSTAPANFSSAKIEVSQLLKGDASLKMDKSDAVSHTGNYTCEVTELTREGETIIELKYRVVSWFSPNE
Kind of test: ELISA on coated macaque CD47-Fc; row printed as Affinity (µg/mL).

Test [4] has as its target T1, His-tagged human CD47-ECD protein …. Kind of test: competitive ELISA on coated CD47-His (2 µg/mL); blocked ligand SIRPα-Fc-Bio (0.1 µg/mL), HRP-streptavidin, OD450; value is parameter C of the printed 4-parameter fit. This is another data set of the same source.
The target is the same in test [5]. The description is as above. The source holds these as a separate data set.
The target of test [6] is T3, CD47 on the cell surface (CHO-CD47 cells, Jurkat cells, Raji cells) (human, UniProt Q08722 19-323).
T3 construct: whole, on cells; One molecule is used for CD47 on CHO-CD47, Jurkat and Raji cells; also called CHO surface CD47; Jurkat cell surface CD47
Put plainly: flow cytometry on CHO-CD47 cells, goat anti-human IgG Fc-PE, PE-A mean fluorescence.

In test [7] the target is T3, CD47 on the cell surface (CHO-CD47 …). Put plainly: flow cytometry competition on CHO-CD47 cells; blocked ligand SIRPα-Fc-Bio (6.5 µg/mL), streptavidin-PE; value is parameter C of the printed 4-parameter fit. A general note: A flow cytometer gives signals particle by particle.
The target is the same in test [8]. Kind of test: flow cytometry on Jurkat cells, goat anti-human IgG Fc-PE, PE-A mean fluorescence.
In test [9] the target is T1, His-tagged human CD47-ECD protein …. Put plainly: competitive ELISA on coated CD47-His (2 µg/mL); blocked ligand SIRPα-Fc-Bio (0.1 µg/mL), HRP-streptavidin, OD450; value is parameter C of the printed 4-parameter fit; inhibition is partial (A 1.373, D 0.661).

B1: Antibody 6Y-G1 (antibody, human IgG1, kappa)
heavy: not shown
light: EIVLTQSPSSLSASVGDRVTIPCRASLSIGSFLNWYQQRPGEAPKLLIFAASSLRSGVPSRFSGSGSGTDFTLTISGLQPEDFATYYCQQTYTTPYTFGQGTKVDIKRTVAAPSVFIFPPSDEQLKSGTASVVCLLNNFYPREAKVQWKVDNALQSGNSQESVTEQDSKDSTYSLSSTLTLSKADYEKHKVYACEVTHQGLSSPVTKSFNRGEC
notes: also called Antibody L12-6; L12-6
B1 showed an equilibrium dissociation constant (Kd) in test [1] of 0.142 nM. For the same molecule, in test [2], the IC50 was 0.913 µg/mL. Also, in test [3], the EC50 is 0.083 µg/mL.

B2: Antibody 6Y-G4 (antibody, human IgG4 S228P, kappa)
heavy: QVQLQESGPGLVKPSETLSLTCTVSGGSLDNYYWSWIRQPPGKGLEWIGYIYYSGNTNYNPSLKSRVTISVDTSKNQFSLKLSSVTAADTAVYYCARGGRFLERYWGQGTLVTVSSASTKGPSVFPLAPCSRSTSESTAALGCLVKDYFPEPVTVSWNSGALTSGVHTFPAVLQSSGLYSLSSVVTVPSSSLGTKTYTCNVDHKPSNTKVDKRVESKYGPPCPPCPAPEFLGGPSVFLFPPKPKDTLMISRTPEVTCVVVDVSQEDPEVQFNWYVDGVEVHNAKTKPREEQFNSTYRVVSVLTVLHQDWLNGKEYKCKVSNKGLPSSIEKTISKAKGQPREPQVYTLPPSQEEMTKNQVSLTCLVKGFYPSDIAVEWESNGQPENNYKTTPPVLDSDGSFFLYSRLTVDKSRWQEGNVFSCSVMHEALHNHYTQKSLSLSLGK
light: B1 light
notes: IgG4P (S228P) form of 6Y-G1
In the case of B2, the IC50 in test [2] is 0.763 µg/mL. Besides, in test [3], the EC50 amounted to 0.11 µg/mL.

B3: Antibody L26 (antibody, human IgG1, kappa)
heavy: not shown
light: B1 light with G77S, V104L, D105E
notes: Full-length IgG1
As to B3, the IC50 in [4] was found to be 1.02 µg/mL.

B4: Antibody L12 (antibody, human IgG1, kappa)
heavy: not shown
light: B1 light
notes: Full-length IgG1
Turning to B4, in test [1], the Kd was 0.112 nM. In test [3], this molecule had an EC50 of 0.066 µg/mL. In addition, the IC50 in test [5] amounted to 1.18 µg/mL.

B5: Antibody L24 (antibody, human IgG1, kappa)
heavy: not shown
light: B1 light with E1D, V3Q, L4M, G77S, D105E
notes: Full-length IgG1
As to B5, the IC50 in [4] turned out to be 1.09 µg/mL.

B6: Antibody L1 (antibody, human IgG1, kappa)
heavy: not shown
light: B1 light with S10T, D105E
notes: Full-length IgG1
Turning to B6, the concentration for half-maximal inhibition (IC50) in [4] came out at 0.967 µg/mL.

B7: Antibody L5 (antibody, human IgG1, kappa)
heavy: not shown
light: B1 light with Q100P, K103R, V104L, D105E
notes: Full-length IgG1
In test [4], B7 came in with an IC50 of 1.02 µg/mL.

B8: Antibody 17 (antibody, human IgG1, kappa, V domains shown)
VH: QVQLQESGPGLVKPSETLSLTCTVSGGSLDNYYWSWIRQPPGKGLEWIGYIYYSGNTNYNPSLKSRVTISVDTSKNQFSLRLRSVTAADTAVYYCARGGRFLERYWGQGTLVTVSS
VL: DIQMTQSPSSVSASVGDRVTISCRANQAIGTWLAWYQQKPGKAPKLLIYAASTLQSGVPSRFSGSGSGTEFTLTISSLQAEDVAVYYCQQYYTTPLTFGGGTKLEIKR
notes: Full-length IgG1
Take B8: the EC50 in test [3] was determined as 0.064 µg/mL. In addition, the IC50 in test [4] was 0.795 µg/mL.

B9: Antibody 18 (antibody, human IgG1, kappa, V domains shown)
VH: QVQLQESGPGLVKPSETLSLTCTVSGGSLDNYYWSWIRQPPGKGLEWIGYIYYSGNTNYNPSLKSRVTISVDTSKNQFSLRLRSVTAADTAVYYCARGRGIFGYWGQGTLVTVSS
VL: B8 VL
notes: Full-length IgG1
B9 came in with an IC50 in [5] of 1.23 µg/mL.

B10: Antibody 16 (antibody, human IgG1, kappa, V domains shown)
VH: B8 VH with F101I, L102F, E103S, R104G
VL: B8 VL
notes: Full-length IgG1
As to B10, the IC50 in test [5] is 0.975 µg/mL.

B11: Antibody 24 (antibody, human IgG1, kappa, V domains shown)
VH: B8 VH with Y50R, Y53G, S54D, G55S, N56A, F101I, L102F, E103S, R104G
VL: B8 VL
notes: Full-length IgG1
With B11, the IC50 in [5] came to 1.41 µg/mL.

B12: Antibody 25 (antibody, human IgG1, kappa, V domains shown)
VH: B9 VH with R99G, G100R, Y104H
VL: B8 VL
notes: Full-length IgG1
In [5], B12 yielded an IC50 of 1.31 µg/mL.

B13: Antibody 17-ScFv (scFv)
scFv: QVQLQESGPGLVKPSETLSLTCTVSGGSLDNYYWSWIRQPPGKGLEWIGYIYYSGNTNYNPSLKSRVTISVDTSKNQFSLRLRSVTAADTAVYYCARGGRFLERYWGQGTLVTVSSGGGGSGGGGSGGGGSDIQMTQSPSSVSASVGDRVTISCRANQAIGTWLAWYQQKPGKAPKLLIYAASTLQSGVPSRFSGSGSGTEFTLTISSLQAEDVAVYYCQQYYTTPLTFGGGTKLEIK
notes: VH C-terminus linked to VL N-terminus; Purified on a protein A column and detected with anti-human IgG Fc-PE, but no Fc or tag is described for it
As for B13, the “EC50 (read off the curve)” value in [6] and in [8] was about 1 µg/mL throughout. For the same molecule, the results for the half-inhibitory concentration (IC50) in test [7] and in [9] were 15.1 µg/mL and 0.936 µg/mL, respectively.
